# Measurements reported in patent publication US12466853B2, “Selective targeting of apoptosis proteins by structurally-stabilized and/or cysteine-reactive NOXA peptides” (priority 2017, dated 2025).
# Where a chain is given by its changes, count along the chain named. Positions of bridges follow the written chain, without caps; N, C: chain ends. Non-standard residues stand in square brackets, D forms with d. No end group written: not given here. R8 = C=CCCCCCC[C@@](C)(N)C(=O)O; S5 = C=CCCC[C@](C)(N)C(=O)O
# Key:
# His-BFL-1ΔC = molecular target: T1, His-BFL-1ΔC (Homo sapiens, UniProt Q16548); test: Streptavidin pulldown from recombinant protein mixture, BFL-1; assay type: binding; conditions: equimolar mixture of recombinant MCL-1, BCL-XL, BFL-1 and biotinylated SAHB, silver stain
# T1 construct: Recombinant anti-apoptotic BFL-1ΔC (aa 1-151) and its cysteine to serine mutants were cloned into PET17b; made in house; host or cells: Escherichia coli LOBSTR BL21(DE3)
# T1 sequence (Q16548 1-151): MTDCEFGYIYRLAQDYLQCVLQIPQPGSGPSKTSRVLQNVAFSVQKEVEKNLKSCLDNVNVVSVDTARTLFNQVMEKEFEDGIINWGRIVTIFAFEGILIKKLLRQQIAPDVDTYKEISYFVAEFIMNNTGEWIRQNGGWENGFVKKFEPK
# Procedure: (§1) WT His-BFL-1ΔC, BCL-XLΔC (tagless), and GST-MCL-1ΔNΔC (1 μM each) were combined and incubated with 3 mM DTT in PBS for thirty minutes at room temperature. Mixtures were treated with vehicle or the indicated C-terminally biotinylated NOXA SAHB (1 μM) for four hours and were then added to 30 μL PBS-washed high-capacity streptavidin (SA) agarose beads (Thermo Fisher Pierce) and incubated with rotation at room temperature for two hours. The beads were then washed three times with NP-40 lysis buffer (1% NP-40, 50 mM Tris pH 8, 100 mM NaCl, 2.5 mM MgCl2) and three times with PBS. To elute bound protein, beads were boiled for ten minutes with 10% SDS containing 10 mg/mL biotin. After elution, samples were boiled with 3×LDS and 2M DTT for twenty minutes. Gel electrophoresis using a 12% Bis-Tris gel was conducted on inputs (2%) and eluates (5 μL) and gels were developed using the Pierce silver staining kit (Thermo Fisher).
# BCL-XLΔC (tagless) = molecular target: T2, BCL-XLΔC (tagless) (Homo sapiens, UniProt Q07817); test: Streptavidin pulldown from recombinant protein mixture, BCL-XL; assay type: binding; conditions: equimolar mixture of recombinant MCL-1, BCL-XL, BFL-1 and biotinylated SAHB, silver stain
# T2 construct: Recombinant anti-apoptotic BCL-XLΔC (aa 1-212) and MCL-1ΔNΔC (aa 172-329); GST (N, cleaved yes); made in house; host or cells: Escherichia coli BL21(DE3)
# Procedure: as §1
# GST-MCL-1ΔNΔC = molecular target: T3, GST-MCL-1ΔNΔC (Homo sapiens, UniProt Q07820); test: Streptavidin pulldown from recombinant protein mixture, MCL-1; assay type: binding; conditions: equimolar mixture of recombinant MCL-1, BCL-XL, BFL-1 and biotinylated SAHB, silver stain
# T3 construct: BCL-XLΔC (aa 1-212) and MCL-1ΔNΔC (aa 172-329) were cloned into the PGEX-4T-1; made in house; host or cells: Escherichia coli BL21(DE3)
# Procedure: as §1
# [1] = molecular target: T4, HA-BFL-1ΔC C4S/C19S / tBID (Homo sapiens, UniProt Q16548, C19S/C4S); test: BFL-1/BH3 complex disruption: competition with tBID in 293T lysates; assay type: binding; conditions: anti-HA immunoprecipitation
# T4 construct: Recombinant anti-apoptotic BFL-1ΔC (aa 1-151) and its cysteine to serine mutants were cloned into PET17b; expressed in transfected cells; host or cells: 293T (lysate)
# T4 sequence (Q16548 1-151 C4S/C19S): T1 sequence (Q16548 1-151) with C4S, C19S
# Procedure: (§2) To evaluate the capacity of biotinylated SAHBs to compete with tBID for interactions with BFL-1 and MCL-1, 293T cells were transfected with either HA-BFL-1ΔC C4S/C19S or FLAG-MCL-1 in the p3XFLAG-CMV-10 vector (Sigma) as above. After 24 hr, cells were trypsinized, washed with PBS, lysed in 1% CHAPS buffer, and the supernatant collected for protein concentration determination by BCA kit. Lysate samples (0.5 mg) were incubated with 0.25 μM recombinant tBID (R&D Systems) and 5 μM biotinylated NOXA SAHBs for 6 h at RT. The mixtures were then subjected to HA or FLAG immunoprecipitation, followed by western analysis using 1:1000 dilutions of HA (Sigma Aldrich, #12CA5), FLAG (Sigma-Aldrich, F7425), and BID (Santa Cruz sc-11423) antibodies.
# FLAG-MCL-1 / tBID = molecular target: T5, FLAG-MCL-1 / tBID (Homo sapiens, UniProt Q07820); test: MCL-1/tBID complex disruption in 293T lysates; assay type: binding; conditions: FLAG immunoprecipitation
# T5 construct: expressed in transfected cells; host or cells: 293T (lysate)
# Procedure: as §2
# MCL-1 = molecular target: T6, MCL-1 (Homo sapiens, UniProt Q07820); test: MCL-1 engagement in A375P lysates (streptavidin pulldown, MCL-1 western); assay type: binding; conditions: biotinylated SAHB
# T6 construct: endogenous protein in lysates from the A375P melanoma cell line; endogenous in cells; host or cells: A375P melanoma cells (lysate)
# Procedure: (§3) Cultured A375P and U937 cells were trypsinized or harvested, respectively, washed with PBS, and lysed by incubating with 1% CHAPS lysis buffer (1% CHAPS, 150 mM NaCl, 50 mM Tris pH 7.4, 100 μM DTT). The protein concentrations of the soluble fraction were measured using a BCA kit according to the manufacturer's instructions (Thermo Scientific). Lysate samples (1 mg) were incubated with vehicle or C-terminally biotinylated NOXA SAHBs (30 μM) overnight in 1% CHAPS lysis buffer at 4° C. Biotin capture was accomplished by incubating the mixture with high-capacity SA agarose (Thermo Scientific) for 2 hours at 4° C., followed by centrifugation and washing the pelleted beads three times with lysis buffer (1 mL). Bead-bound proteins were eluted by boiling in 10% SDS containing 10 mg/mL biotin for 10 minutes and then subjected to electrophoresis and western blotting using BFL-1 (Abcam, #125259) and MCL-1 (Rockland #600-401-394S) antibodies.
# U937 cells = test: Cell viability (CellTiter-Glo) and CalcuSyn synergy, U937; conditions: U937 cells (BFL-1-dependent)
# Procedure: (§4) Cell viability and caspase-3/7 activation was measured using CellTiter-Glo and Caspase-Glo 3/7 chemiluminescence reagents (Promega), respectively, and luminescence was detected by a Spectramax M5 microplate reader. Synergy of drug interactions was calculated using the CalcuSyn software (Biosoft).
# MV4;11 cells = test: Cell viability (CellTiter-Glo) and CalcuSyn synergy, MV4;11
# Procedure: as §4
# native BFL-1 = molecular target: T7, native BFL-1 (Homo sapiens, UniProt Q16548); test: BFL-1 targeting in A375P lysates (streptavidin pulldown, BFL-1 western); assay type: binding; conditions: biotinylated SAHB, compared to acetylated construct
# T7 construct: endogenous in cells; host or cells: A375P melanoma cells (A10); U937 AML cells (A12), lysates
# T7 sequence (Q16548 1-175): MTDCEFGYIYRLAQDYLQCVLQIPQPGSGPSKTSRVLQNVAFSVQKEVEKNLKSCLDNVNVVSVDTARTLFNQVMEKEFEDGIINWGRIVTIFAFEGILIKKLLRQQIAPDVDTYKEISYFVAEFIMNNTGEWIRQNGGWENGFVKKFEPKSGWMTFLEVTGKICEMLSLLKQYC
# Procedure: as §3
# full-length BFL-1 = molecular target: T8, full-length BFL-1 (Homo sapiens, UniProt Q16548); test: Covalent crosslinking to full-length BFL-1, recombinant and HA-tagged expressed in 293T cells; assay type: binding; conditions: recombinant and expressed in 293T cells; somewhat reduced efficiency vs C-terminally truncated species
# T8 construct: Recombinant full-length BFL-1 (aa-175) containing an N-terminal hexahistidine tag; made in house
# T8 sequence (Q16548 1-175): T7 sequence (Q16548 1-175)
# Excerpt: We confirmed that both of our lead constructs could covalently crosslink to full-length BFL-1 protein, which bears a C-terminal helix that could potentially compete with D-NA-NOXA SAHBs for interaction at the canonical BH3-binding pocket in cancer cells. We generated recombinant full-length BFL-1 and expressed HA-tagged full-length BFL-1 in 293T cells, and then conducted crosslinking analyses in vitro and in treated cells, respectively.
# Recombinant full-length BFL-1 (aa-175) containing an N-terminal hexahistidine tag was cloned into the PTYB1 vector (New England Biolabs) and purified as above except for the addition of a chitin affinity chromatography and DTT elution step. Protein purity and identity was confirmed by Coomassie staining and western blot analysis using a mouse monoclonal anti-His6 tag antibody (Abcam).
# His-BFL-1ΔC C4S/C19S protein (5 μM) was pre-treated with 10 mM DTT in 50 mM Tris (pH 8.0) and 100 mM NaCl for 30 min at room temperature (final volume […]) and then combined with a 10:1 molar ratio of cysteine-reactive NOXA SAHB for an additional 1-hr incubation at room temperature. The samples were then boiled in 3× loading buffer with DTT and electrophoresed on 12% Bis-Tris gel, then subjected to Coomassie staining.
# BCL-XLΔC / FITC-BID BH3 = molecular target: T9, BCL-XLΔC / FITC-BID BH3 (Homo sapiens, UniProt Q07817); test: Competitive fluorescence polarization binding assay, BCL-XLΔC
# T9 construct: Recombinant anti-apoptotic BCL-XLΔC (aa 1-212) and MCL-1ΔNΔC (aa 172-329); GST (N, cleaved yes); made in house; host or cells: Escherichia coli BL21(DE3)
# Procedure: (§5) Fluorescence polarization (FP) assays were performed as previously described (Pitter et al., 2008 (supra)). Briefly, direct binding curves were first generated by FITC-BID BH3 (25 nM) with serial dilutions of anti-apoptotic protein, and FP was measured at 5 min on a SpectraMax M5 microplate reader (Molecular Devices). For competition assays, a serial dilution of acetylated or warhead-bearing NOXA SAHB was added to the indicated recombinant protein at ˜EC75 concentration, as determined by the direct binding assay. FITC-BID BH3 (25 nM) was then added and fluorescence polarization was measured at equilibrium. IC50 values were calculated by nonlinear regression analysis of competitive binding curves using PRISM software (GraphPad).
# [2] = molecular target: T10, BFL-1ΔC C4S/C19S/C55S / FITC-BID BH3 (Homo sapiens, UniProt Q16548, C19S/C4S/C55S); test: Competitive fluorescence polarization binding assay, BFL-1ΔC C4S/C19S/C55S
# T10 construct: Recombinant anti-apoptotic BFL-1ΔC (aa 1-151) and its cysteine to serine mutants were cloned into PET17b; hexahistidine (N); made in house; host or cells: Escherichia coli LOBSTR BL21(DE3)
# T10 sequence (Q16548 1-151 C4S/C19S/C55S): T1 sequence (Q16548 1-151) with C4S, C19S, C55S
# Procedure: as §5
# T5 sequence (Q07820 whole entry): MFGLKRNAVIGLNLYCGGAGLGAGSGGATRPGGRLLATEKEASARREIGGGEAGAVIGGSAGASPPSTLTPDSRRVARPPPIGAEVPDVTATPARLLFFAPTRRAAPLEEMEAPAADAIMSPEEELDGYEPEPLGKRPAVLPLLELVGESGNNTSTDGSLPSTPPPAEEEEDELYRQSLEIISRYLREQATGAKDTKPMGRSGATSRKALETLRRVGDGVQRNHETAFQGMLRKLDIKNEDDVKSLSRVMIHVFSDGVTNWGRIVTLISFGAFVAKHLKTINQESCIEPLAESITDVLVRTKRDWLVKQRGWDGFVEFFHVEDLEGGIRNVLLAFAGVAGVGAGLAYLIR
# T3 sequence (Q07820 172-329, stated change not applied): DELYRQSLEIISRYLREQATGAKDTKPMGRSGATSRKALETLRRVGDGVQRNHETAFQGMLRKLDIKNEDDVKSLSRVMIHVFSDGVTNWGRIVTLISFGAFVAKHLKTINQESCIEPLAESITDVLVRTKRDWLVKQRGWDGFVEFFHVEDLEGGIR
# T2 sequence (Q07817 1-212, stated change not applied): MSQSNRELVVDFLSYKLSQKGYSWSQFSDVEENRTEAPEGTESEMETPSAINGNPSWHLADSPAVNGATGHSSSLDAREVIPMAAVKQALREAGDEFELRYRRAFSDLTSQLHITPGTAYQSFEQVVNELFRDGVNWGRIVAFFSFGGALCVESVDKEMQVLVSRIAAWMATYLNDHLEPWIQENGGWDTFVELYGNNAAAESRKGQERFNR
# T9 sequence (Q07817 1-212, stated change not applied): as above
Molecule,BFL-1 binding / pull down (His-BFL-1ΔC),competition with tBID for HA-BFL-1ΔC C4S/C19S interaction [1],dissociation of FLAG-MCL-1/tBID interaction (FLAG-MCL-1 / tBID),MCL-1 engagement (MCL-1),other results
"AT8LRRAGDXLNFRQ (AT[R8]LRRAGD[S5]LNFRQ; staple 3-10; not fully specified (N-terminus); printed as AT8LRRAGDXLNFRQ) [Ac-NOXA-15 F32A, acetylated counterpart of D-NA-NOXA-15 F32A]",no binding,incapable of competing with tBID for HA-BFL-1 binding,neither D-NA- nor Ac-NOXA15 F32A is able to dissociate the interaction,approximately equivalent binding to MCL-1,BCL-XL binding / pull down (BCL-XLΔC (tagless)): no binding; MCL-1 binding / pull down (GST-MCL-1ΔNΔC): detectable but minimal direct interaction
Cc1c(-c2c(-c3ccc(F)o3)sc3ncnc(O[C@H](Cc4ccccc4OCc4ccnn4CC(F)(F)F)C(=O)O)c23)ccc(OCCN2CCN(C)CC2)c1Cl [S63845],–,–,–,–,"cytotoxicity, single agent (U937 cells): no activity; cytotoxic synergy upon co-treatment (MV4;11 cells; MV4;11 cells (not dependent on BFL-1)): synergy in combination with ATM inhibition; cytotoxicity, single agent (MV4;11 cells; MV4;11 cells (not dependent on BFL-1, dependent on MCL-1)): single agent activity"
JAT8LRRAGDXLNFRQ [D-NA-NOXA-15 F32A],striking competitive advantage for BFL-1 targeting over its acetylated counterpart,near total inhibition of tBID co-immunoprecipitation,neither D-NA- nor Ac-NOXA15 F32A is able to dissociate the interaction,approximately equivalent binding to MCL-1,BFL-1 binding / pull down (His-BFL-1ΔC; listed as D-NA-NOXA-15 F32A SAHB): notably more BFL-1 engagement; targeting of native BFL-1 (native BFL-1): enhanced targeting of native BFL-1; covalent crosslinking to full-length BFL-1 (full-length BFL-1): covalent crosslinking to recombinant and expressed full-length BFL-1
"*AT8LRRFGDXLNFRQ [Ac-NOXA SAHB, acetyl-capped i, i+7-stapled NOXA BH3 peptide (aa 26-40)]",little to no interaction with BFL-1,–,–,–,–
"AT8LREFGDXLNFRQ (AT[R8]LREFGD[S5]LNFRQ; staple 3-10 (inferred); not fully specified (N-terminus); printed as AT8LREFGDXLNFRQ) [Ac-NOXA-15 R31E, acetylated counterpart of D-NA-NOXA-15 R31E]",–,–,neither D-NA- nor Ac-NOXA15 R31E is able to dissociate the interaction,approximately equivalent binding to MCL-1,competition for FITC-BID BH3 binding to BCL-XLΔC (BCL-XLΔC / FITC-BID BH3): neither Ac- nor D-NA-NOXA-15 R31E is able to compete; competition for FITC-BID BH3 binding to BFL-1ΔC C4S/C19S/C55S [2]: neither D-NA- nor Ac-NOXA15 R31E competes
